{"source": "paper doi:10.1101/2023.01.20.524748", "about": "“A Novel Monoclonal Antibody Targeting a Large Surface of the Receptor Binding Motif Shows Pan-neutralizing SARS-CoV-2 Activity Including BQ.1.1 Variant” (bioRxiv, 2023)", "binders": {"B1": {"name": "17T2 mAb (human recombinant monoclonal IgG1) (antibody, V domains shown)", "VH": "QVQLVQSGPEVKKPGTSVKVSCKAPVFTFSISAVQWVRQARGQRLEWIGWIVVGSGNTNYAQNFQERVTITTDMSTGTVYMELSGLRSEDTAMYYCAAPYCNRTTCYDGFDLWGQGTMVTVSS", "VL": "EIVLTQSPGTLSLSPGERATLSCRASQSISSNYLAWYQQKPGQAPRLLIYGASSRATGIPDRFSGSGSGTDFTLSINRLEPEDFAMYYCQHYGGLSRWTFGQGTKVEIK"}, "B2": {"name": "17T2 Fab fragment (Fab, V domains shown)", "VH": "B1 VH", "VL": "B1 VL", "notes": "also called Fab 17T2"}}, "key": {"[1]": {"target": "T1, RBD of the WH1 (ancestral) SARS-CoV-2 spike protein (Severe acute respiratory syndrome …, UniProt P0DTC2)", "T1 construct": "also called RBD from the ancestral variant; WH1 RBD", "experiment": "ELISA", "details": "both partners purified"}, "[2]": {"target": "T2, B.1.1.529 (BA.1) S1 + S2 Trimer-His Recombinant Protein (SARS-CoV-2 Omicron B.1.1.529 (BA.1), strain)", "T2 construct": "also called Omicron BA.1 trimeric spike; BA.1 spike", "experiment": "cryo-EM structure", "details": "both partners purified"}}, "data": [{"binder": "B1", "values": [{"measurement": "binding result", "setting": "[1]", "value": "binds"}]}, {"binder": "B2", "values": [{"measurement": "stoichiometry N", "setting": "[2]", "value": 3, "unit": "Fab per spike trimer"}]}]}
